This assay concerns the target T1, recombinant biotin peptide-6 x His-tagged SARS-CoV-2 N protein (SARS-CoV-2 N-Bio-His6), biotinylated (SARS-CoV-2, UniProt P0DTC9 1-419).
T1 construct: also called recombinant SARS-CoV-2 N fusion protein
As to the kind of experiment: ELISA. To be noted: both partners purified. (In an ELISA, binding on a coated surface is turned into a signal by an enzyme label.)

B1: SARS-CoV-2 Spike CD-Fc (fusion protein containing the SARS-CoV-2 Spike C-terminal domain and the human IgG1 Fc domain) (Fc fusion)
chain: LCCMTSCCSCLKGCCSCGSCCKFDEDDSEPVLKGVKLHYT
notes: also called recombinant SARS-CoV-2 Spike CD fusion protein
For the molecule B1, the binding result is listed as “binds”.

Source of the values: paper PMC8688357 (Frontiers in Microbiology, 2021).
